This passage reports Kd results from article PMC9629889.

Broadly, the Kd is the free concentration of one partner at which half of the binding sites on the other are occupied at equilibrium, for simple one-to-one binding. A lower Kd goes with tighter binding.

Common to all, as to assay: MST; Monolith NT.115; TaMTB labelled with the protein labelling kit RED in PBS, ligand (NIb) in a concentration gradient; Kd-Fit; three repeats
Experiment [1] has as its target TaMTB(SNP176^A) protein purified from E. coli (Triticum aestivum).
In experiment [2] the target is TaMTB-His (from E. coli) (Triticum aestivum (cv. Yangmai158 cDNA)).
The target of experiment [3] is TaMTB(SNP176^C) protein purified from E. coli (Triticum aestivum).

B1: NIb protein purified from E. coli (natural protein)
chain: ASDILSKINNSILGFGSDLKGQLVQPITPALRTRFEALFGGGSFELVGTMNKGLIDKHTIVGENDNVHDFMREHPTFAWLQGFMDEYAPSVLNYTAYYKDLCKYNRKKHQLSFNPHELRSATAGMIRMLEDAGLTQGDVRTPQQVVSDMQWNTSAGPSYQGKKRDVCAHLSEQEVLHLAETSRQQFLACNSIGIWNGSLKAELRTIEKVEAEKTRVFTASPITSLFAMKFYVDDFNKKFYATNLKAPHTVGINKFSRGWEMLHDKLNRPGWLHGSGDGSRFDSSIDPFFFDIIKEIRKHFLPVEHHRAIDLIYDEILNTNICLANGMVIRKNVGNNSGQPSTVVDNTLVLMVSFLYAYIHKTGDHMLKKLNDRFVFVCNGDDNKFAISPEFDAEFGHDFSPELTELGLTYEFDDITDDICANPYMSLTMVRTPFGIGFSLPVERIVAIMQWAKKGGVLHSYLAGISAIYESFNTPKLFKSVYAYLLWLTEEHGSDILAAMTGTATALPIPSMLDVYRLHYGDSSIELQ
modifications: not checked
For B1, the Kd was 730 nM in experiment [1], 1120 nM in experiment [2] and 110 nM in experiment [3].
